Measurements reported in patent US20230063794A1, “STAPLED TRIAZOLE CO-AGONISTS OF THE GLUCAGON AND GLP-1 RECEPTORS” (Merck Sharp & Dohme LLC, priority 2019, published 2023).
Starred links: 1 amine or outer side, 2 acyl side, 3 side chain; linkers in the order of their positions; H or OH if unused. Positions of bridges follow the written chain, without caps; N, C: chain ends. Non-standard residues stand in square brackets, D forms with d. Residues, ends and D or L forms follow the SMILES beside them. Groups on a side chain read outwards from the residue. Triazole bridges read from a SMILES are 1,4-linked. No end group written: not given here. *: point of attachment. Peg3N3Ala = O-(2-(2-(2-azidoethoxy)ethoxy)ethyl)-L-serine, [N-]=[N+]=NCCOCCOCCOC[C@H](N[*:1])C(=O)[*:2]; Lys(N3) = [N-]=[N+]=NCCCC[C@H](N)C(=O)O; γGlu = O=C(O)[C@H](CCC(=O)[*:2])N[*:1]; Met(O2) = CS(=O)(=O)CC[C@H](N)C(=O)O; Palmitoyl = CCCCCCCCCCCCCCCC(=O)*; dPra = C#CC[C@@H](N)C(=O)O; Nle = CCCC[C@H](N)C(=O)O; Ac4c = NC1(C(=O)O)CCC1; Aib = CC(C)(N)C(=O)O

B1: TP862 (peptide)
peptide: H[Aib]QGTFTSDKSKYLD[Ac4c]RAAQDFV[dPra]WL[Met(O2)][Lys(N3)]TK-{γGlu-NH2}
modifications: triazole 24-28; not fully specified (residue 10); printed as HUQGTFTSDK(γEγEC16)SKYLDAcbRAAQDFVpra*WL2Nle(ϵN3)*T / KγE-NH2
B2: TP531 (peptide)
peptide: HXQGTFTSDKSKYLDERAAXDFVXWLLDT
modifications: D-Ser at 2; pra at 20 and Nle(εN3) at 24 cyclized to a triazole containing ring; C-terminal amide
B3: TP530 (peptide)
peptide: HXQGTFTSDKSKYLDERAAXDFVXWLLDT
modifications: D-Ser at 2; Nle(εN3) at 20 and pra at 24 cyclized to a triazole containing ring; C-terminal amide
B4: TP852 (peptide)
peptide: HXQGTFTSDXSKYLDARAAQDFVXWLLXT
modifications: D-Ser at 2; Lys 10 conjugated to γEγE-C16 fatty acid; Nle(εN3) at 24 and pra at 28 cyclized to a triazole containing ring; C-terminal amide

Assays:
human GCGR = molecular target: T1, human GCGR (Homo sapiens, UniProt P47871); test: cAMP activity assay in cells expressing human GCGR; type: cell-based; details: ratio of human GCGR EC50 to human GLP1R EC50
T1 construct: expressed in transfected cells; grown under Blasticidin and Hygromycin selection
Method: Activity of the peptides at the Glucagon receptor (GCGR) and GLP-1 receptor (GLP1R) was measured in a cAMP activity assay.
Peptides were dissolved in 100% DMSO and serially diluted to generate 10 point titrations. The peptide solutions were then transferred into 384-well assay plates (150 nL/well). Assay ready frozen cells expressing human GLP1R or human GCGR were suspended in growth media consisting of DMEM medium (GIBCO), 10% FBS (GIBCO), 1× NEAA(GIBCO), 1× P/S (GIBCO), 10 ug/ml Blasticidin (GIBCO) and 200 μg/mL Hygromycin (GIBCO). Cells were then diluted in assay buffer consisting of PBS (GIBCO), 7.5% BSA (Perkin Elmer), 100 μM RO 20-1724 (Sigma), with or without 20% human serum (MP Biomedical). The cell suspensions (15 μL) were then added to the assay plates containing the peptide solutions (30,000 cells/well for human GCGR; 10,000 cells/well for human GLP1R). The cells were incubated for 1 hour at room temperature in the dark. Production of cAMP was determined using HitHunter™ cAMPXS kits (DiscoverX) following manufacturer protocol. The plates were incubated for overnight at room temperature in the dark. Luminescence was measured using an EnVision Multilabel plate reader (Perkin Elmer). Native GLP-1 and Glucagon (Bachem) are used as control peptides. EC50 values were calculated using uses a 4 parameter logistic fit based on the Levenberg-Marquardt algorithm.

[1] = molecular target: human Glucagon receptor (GCGR) (human, UniProt P47871 26-477); test: cell-based or functional assay
[2] = molecular target: human GLP-1 receptor (GLP1R) (human, UniProt P43220 24-463); test: cell-based or functional assay

Sequence of human Glucagon receptor (GCGR) (P47871 26-477): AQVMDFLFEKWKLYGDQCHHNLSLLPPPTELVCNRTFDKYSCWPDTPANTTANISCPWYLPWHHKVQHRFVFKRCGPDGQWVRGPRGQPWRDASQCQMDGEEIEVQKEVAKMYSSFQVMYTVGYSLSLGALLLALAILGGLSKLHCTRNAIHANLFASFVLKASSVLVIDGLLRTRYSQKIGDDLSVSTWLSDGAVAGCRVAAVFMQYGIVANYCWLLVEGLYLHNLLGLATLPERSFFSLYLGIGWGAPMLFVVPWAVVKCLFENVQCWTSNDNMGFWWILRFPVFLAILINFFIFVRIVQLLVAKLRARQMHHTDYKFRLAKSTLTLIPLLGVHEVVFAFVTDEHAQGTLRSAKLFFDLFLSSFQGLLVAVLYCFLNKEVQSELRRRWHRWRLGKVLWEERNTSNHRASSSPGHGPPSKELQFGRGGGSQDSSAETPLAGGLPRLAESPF
T1 sequence (P47871 26-477): as above

Molecule | hGCGR/hGLP1R (hTone) (human GCGR) | GCGR EC50 human (nM), cAMP activity assay [1] | GLP1R EC50 human (nM), cAMP activity assay [2]
CCCCCCCCCCCCCCCC(=O)N[C@@H](CCC(=O)N[C@@H](CCC(=O)NCCCC[C@H](NC(=O)[C@H](CC(=O)O)NC(=O)[C@H](CO)NC(=O)[C@@H](NC(=O)[C@H](Cc1ccccc1)NC(=O)[C@@H](NC(=O)CNC(=O)[C@H](CCC(N)=O)NC(=O)[C@@H](CO)NC(=O)[C@@H](N)Cc1c[nH]cn1)[C@@H](C)O)[C@@H](C)O)C(=O)N[C@@H](CO)C(=O)N[C@@H](CCCCN)C(=O)N[C@@H](Cc1ccc(O)cc1)C(=O)N[C@@H](CC(C)C)C(=O)N[C@@H](CC(=O)O)C(=O)N[C@@H](C)C(=O)N[C@@H](CCCNC(=N)N)C(=O)N[C@@H](C)C(=O)N[C@@H](C)C(=O)N[C@@H](CCC(N)=O)C(=O)N[C@@H](CC(=O)O)C(=O)N[C@@H](Cc1ccccc1)C(=O)N[C@H](C(=O)N[C@@H]1Cc2cn(nn2)CCCC[C@@H](C(=O)N[C@H](C(N)=O)[C@@H](C)O)NC(=O)[C@H](CC(C)C)NC(=O)[C@H](CC(C)C)NC(=O)[C@H](Cc2c[nH]c3ccccc23)NC1=O)C(C)C)C(=O)O)C(=O)O [compound 15] (H-H[dS]QGTFTSDK([γGlu-γGlu-Palmitoyl])SKYLDARAAQDFV[dPra]WLL[Lys(N3)]T-NH2; triazole 24-28) | 0.72 | – | –
CCCCCCCCCCCCCCCC(=O)N[C@@H](CCC(=O)N[C@@H](CCC(=O)NCCCC[C@H](NC(=O)[C@H](CC(=O)O)NC(=O)[C@H](CO)NC(=O)[C@@H](NC(=O)[C@H](Cc1ccccc1)NC(=O)[C@@H](NC(=O)CNC(=O)[C@H](CCC(N)=O)NC(=O)C(C)(C)NC(=O)[C@@H](N)Cc1c[nH]cn1)[C@@H](C)O)[C@@H](C)O)C(=O)N[C@@H](CO)C(=O)N[C@@H](CCCCN)C(=O)N[C@@H](Cc1ccc(O)cc1)C(=O)N[C@@H](CC(C)C)C(=O)N[C@@H](CC(=O)O)C(=O)NC(C)(C)C(=O)N[C@@H](CCCNC(=N)N)C(=O)N[C@@H](C)C(=O)N[C@@H](C)C(=O)N[C@@H]1Cc2cn(nn2)CCCC[C@@H](C(=O)N[C@@H](Cc2c[nH]c3ccccc23)C(=O)N[C@@H](CC(C)C)C(=O)N[C@@H](CCCC)C(=O)N[C@@H](CC(=O)O)C(=O)N[C@H](C(N)=O)[C@@H](C)O)NC(=O)[C@H](C(C)C)NC(=O)[C@H](Cc2ccccc2)NC(=O)[C@H](CC(=O)O)NC1=O)C(=O)O)C(=O)O [compound 17] (H-H[Aib]QGTFTSDK([γGlu-γGlu-Palmitoyl])SKYLD[Aib]RAA[dPra]DFV[Lys(N3)]WL[Nle]DT-NH2; triazole 20-24) | 2.25 | – | –
CCCCCCCCCCCCCCCC(=O)N[C@@H](CCC(=O)N[C@@H](CCC(=O)NCCCC[C@H](NC(=O)[C@H](CC(=O)O)NC(=O)[C@H](CO)NC(=O)[C@@H](NC(=O)[C@H](Cc1ccccc1)NC(=O)[C@@H](NC(=O)CNC(=O)[C@H](CCC(N)=O)NC(=O)[C@@H](CO)NC(=O)[C@@H](N)Cc1c[nH]cn1)[C@@H](C)O)[C@@H](C)O)C(=O)N[C@@H](CO)C(=O)N[C@@H](CCCCN)C(=O)N[C@@H](Cc1ccc(O)cc1)C(=O)N[C@@H](CC(C)C)C(=O)N[C@@H](CC(=O)O)C(=O)N[C@@H](C)C(=O)N[C@@H]1Cc2cn(nn2)CCCC[C@@H](C(=O)N[C@@H](Cc2ccccc2)C(=O)N[C@H](C(=O)N[C@@H](CCC(N)=O)C(=O)N[C@@H](Cc2c[nH]c3ccccc23)C(=O)N[C@@H](CC(C)C)C(=O)N[C@@H](CC(C)C)C(=O)N[C@@H](CC(=O)O)C(=O)N[C@H](C(N)=O)[C@@H](C)O)C(C)C)NC(=O)[C@H](CCC(N)=O)NC(=O)[C@H](C)NC(=O)[C@H](C)NC1=O)C(=O)O)C(=O)O [compound 14] (H-H[dS]QGTFTSDK([γGlu-γGlu-Palmitoyl])SKYLDA[dPra]AAQ[Lys(N3)]FVQWLLDT-NH2; triazole 17-21) | 0.5 | – | –
CCCCCCCCCCCCCCCC(=O)N[C@@H](CCC(=O)N[C@@H](CCC(=O)NCCCC[C@H](NC(=O)[C@H](CC(=O)O)NC(=O)[C@H](CO)NC(=O)[C@@H](NC(=O)[C@H](Cc1ccccc1)NC(=O)[C@@H](NC(=O)CNC(=O)[C@H](CCC(N)=O)NC(=O)[C@@H](CO)NC(=O)[C@@H](N)Cc1c[nH]cn1)[C@@H](C)O)[C@@H](C)O)C(=O)N[C@@H](CO)C(=O)N[C@@H](CCCCN)C(=O)N[C@@H](Cc1ccc(O)cc1)C(=O)N[C@@H](CC(C)C)C(=O)N[C@@H](CC(=O)O)C(=O)N[C@@H]1Cc2cn(nn2)CCCC[C@@H](C(=O)N[C@@H](CC(=O)O)C(=O)N[C@@H](Cc2ccccc2)C(=O)N[C@H](C(=O)N[C@@H](CCC(N)=O)C(=O)N[C@@H](Cc2c[nH]c3ccccc23)C(=O)N[C@@H](CC(C)C)C(=O)N[C@@H](CC(C)C)C(=O)N[C@@H](CC(=O)O)C(=O)N[C@H](C(N)=O)[C@@H](C)O)C(C)C)NC(=O)[C@H](C)NC(=O)[C@H](C)NC(=O)[C@H](CCCNC(=N)N)NC1=O)C(=O)O)C(=O)O [compound 12] (H-H[dS]QGTFTSDK([γGlu-γGlu-Palmitoyl])SKYLD[dPra]RAA[Lys(N3)]DFVQWLLDT-NH2; triazole 16-20) | 0.8 | – | –
CC(C)C[C@H](NC(=O)[C@H](Cc1ccc(O)cc1)NC(=O)[C@H](CCCCN)NC(=O)[C@H](CO)NC(=O)[C@H](CCCCN)NC(=O)[C@H](CC(=O)O)NC(=O)[C@H](CO)NC(=O)[C@@H](NC(=O)[C@H](Cc1ccccc1)NC(=O)[C@@H](NC(=O)CNC(=O)[C@H](CCC(N)=O)NC(=O)[C@@H](CO)NC(=O)[C@@H](N)Cc1c[nH]cn1)[C@@H](C)O)[C@@H](C)O)C(=O)N[C@@H](CC(=O)O)C(=O)N[C@@H](CCC(=O)O)C(=O)N[C@@H](CCCNC(=N)N)C(=O)N[C@@H](C)C(=O)N[C@@H](C)C(=O)N[C@@H]1Cc2cn(nn2)CCCC[C@@H](C(=O)N[C@@H](Cc2c[nH]c3ccccc23)C(=O)N[C@@H](CC(C)C)C(=O)N[C@@H](CC(C)C)C(=O)N[C@@H](CC(=O)O)C(=O)N[C@H](C(N)=O)[C@@H](C)O)NC(=O)[C@H](C(C)C)NC(=O)[C@H](Cc2ccccc2)NC(=O)[C@H](CC(=O)O)NC1=O [compound 9] (H-H[dS]QGTFTSDKSKYLDERAA[dPra]DFV[Lys(N3)]WLLDT-NH2; triazole 20-24) | 1.92 | – | –
CCCCCCCCCCCCCCCC(=O)N[C@@H](CCC(=O)N[C@@H](CCC(=O)NCCCC[C@H](NC(=O)[C@H](CC(=O)O)NC(=O)[C@H](CO)NC(=O)[C@@H](NC(=O)[C@H](Cc1ccccc1)NC(=O)[C@@H](NC(=O)CNC(=O)[C@H](CCC(N)=O)NC(=O)[C@@H](CO)NC(=O)[C@@H](N)Cc1c[nH]cn1)[C@@H](C)O)[C@@H](C)O)C(=O)N[C@@H](CO)C(=O)N[C@@H](CCCCN)C(=O)N[C@@H](Cc1ccc(O)cc1)C(=O)N[C@@H](CC(C)C)C(=O)N[C@@H](CC(=O)O)C(=O)N[C@@H](C)C(=O)N[C@@H](CCCNC(=N)N)C(=O)N[C@@H](C)C(=O)N[C@@H](C)C(=O)N[C@@H]1Cc2cn(nn2)CCCC[C@@H](C(=O)N[C@@H](Cc2c[nH]c3ccccc23)C(=O)N[C@@H](CC(C)C)C(=O)N[C@@H](CC(C)C)C(=O)N[C@@H](CC(=O)O)C(=O)N[C@H](C(N)=O)[C@@H](C)O)NC(=O)[C@H](C(C)C)NC(=O)[C@H](Cc2ccccc2)NC(=O)[C@H](CC(=O)O)NC1=O)C(=O)O)C(=O)O [compound 13] (H-H[dS]QGTFTSDK([γGlu-γGlu-Palmitoyl])SKYLDARAA[dPra]DFV[Lys(N3)]WLLDT-NH2; triazole 20-24) | 0.4 | – | –
H[Aib]QGTFTSDK([γGlu-γGlu-Palmitoyl])SKYLD[Ac4c]RAA[dPra]DFV[Lys(N3)]WL[Met(O2)]DTK-{γGlu-NH2} (triazole 20-24) [TP860] | – | 0.077 nM | 0.042 nM
B1 | – | 0.139 nM | 0.042 nM
B2 | – | 0.323 nM | 0.168 nM
H[Aib]QGTFTSDK([γGlu-γGlu-Palmitoyl])SKYLD[Ac4c][dPra]AAQ[Lys(N3)]FVQWL[Met(O2)]DTK-{γGlu-NH2} (triazole 17-21) [TP858] | – | 0.064 nM | 0.042 nM
B3 | – | 0.06 nM | 0.03 nM
B4 | – | 0.059 nM | 0.109 nM
H[dS]QGTFTSDK([γGlu-γGlu-Palmitoyl])SKYLDA[dPra]AAQDFV[Peg3N3Ala]WLLDT-NH2 (triazole 17-24) [TP920] | – | 0.115 nM | 0.416 nM
